The numbers were not newly measured in publication PMC3526805, which cites them from elsewhere.

This series has as its target C3b C3b (Homo sapiens) (UniProt P01024).
Chain of UniProt P01024 (P01024 566-670): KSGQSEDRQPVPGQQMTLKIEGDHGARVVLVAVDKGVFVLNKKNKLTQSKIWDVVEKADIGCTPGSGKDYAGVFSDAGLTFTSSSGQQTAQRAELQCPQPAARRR

For “Factor H four regulatory domains (from UniProt P08603)”, the Kd was 10 µM.
